Measurements as given in PMC2676423 (Molecular immunology, 2009).
Values joined by “and” are separate entries in the source; they are usually repeats but may differ in a detail not shown here. Equal values may be shown once.

B1: Fc-TNC-mCD134L (Fc fusion, chicken | mouse)
chain: RSPQPQPKPQPKPEPEGSLHACGCAAAPDIKDLLSRLEELEGLVSSLREQGTGGGSGGRGLQSSSPAKDPPIQRLRGAVTRCEDGQLFISSYKNEYQTMEVQNNSVVIKCDGLYIIYLKGSFFQEVKIDLHFREDHNPISIPMLNDGRRIVFTVVASLAFKDKVYLTVNAPDTLCEHLQINDGELIVVQLTPGYCAPEGSYHSTVNQVPL
B2: Fc-TNC-hCD134L (Fc fusion, chicken | human)
chain: RSPQPQPKPQPKPEPEGSLHACGCAAAPDIKDLLSRLEELEGLVSSLREQGTGGGSGGRGLQVSHRYPRIQSIKVQFTEYKKEKGFILTSQKEDEIMKVQNNSVIINCDGFYLISLKGYFSQEVNISLHYQKDEEPLFQLKKVRSVNSLMVASLTYKDKVYLNVTTDNTSLDDFHVNGGELILIHQNPGEFCVL

Columns and labels:
[1] = biological target: feline CD134 (OX40) expressed on MCC cells (feline); assay: flow cytometry on cells
[2] = biological target: native, endogenously expressed feline CD134 on MYA-1 T cells (feline (endogenous in MYA-1)); assay: flow cytometry on cells
[3] = biological target: human CD134 (OX40) expressed on MCC cells (human) (UniProt P43489); assay: flow cytometry on cells
[4] = biological target: Fc-TNC-fCD134L (chicken | feline) (UniProt P10039); assay: non-reducing SDS-PAGE with immunoblot
[5] = biological target: the molecule itself; assay: non-reducing SDS-PAGE with immunoblot

human CD134 (OX40) expressed on MCC cells (human), sequence (P43489 29-277): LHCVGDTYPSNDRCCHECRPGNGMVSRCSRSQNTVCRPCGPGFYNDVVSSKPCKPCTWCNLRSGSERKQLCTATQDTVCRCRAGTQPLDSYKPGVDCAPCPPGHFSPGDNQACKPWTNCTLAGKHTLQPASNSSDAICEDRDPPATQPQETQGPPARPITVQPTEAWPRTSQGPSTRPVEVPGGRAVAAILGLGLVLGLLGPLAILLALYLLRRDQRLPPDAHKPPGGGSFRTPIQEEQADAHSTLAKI

Molecule | mean fluorescence intensity (MFI) [1] | percent of cells positive [1] | mean fluorescence intensity (MFI) [2] | percent of cells positive [2] | mean fluorescence intensity (MFI) [3] | percent of cells positive [3] | stoichiometry N [4] | stoichiometry N [5]
FLAG-TNC-fCD134L (from UniProt P10039 110-139) (ligand) | 5 | 66.2% | 3 | 44.9% |  |  |  | 
FLAG-mCD134L (FLAG-tagged murine CD134L) (from UniProt P43488 51-198) (ligand) | 309 | 99.7% | 12 | 86.5% |  |  |  | 
Fc-TNC-fCD134L (from UniProt P10039 110-139) (Fc fusion) | 221 | 99.8% | 14 | 82.4% | 9.9 | 45.5% | 6 | 
Fc-TNC-mCD134L (from UniProt P10039 110-139; P43488 51-198) (Fc fusion) | 300 | 99.8% | 7 | 78.2% |  |  |  | 
B1 |  |  |  |  |  |  |  | 6
B2 |  |  |  |  |  |  |  | 2 and 6
